Laboratory results from publication PMC3784150, “Characterization of C-S Lyase from C. diphtheriae: A Possible Target for New Antimicrobial Drugs” (BioMed Research International, 2013).

Assays:
C-S lyase = biological target: T1, C-S lyase (Corynebacterium diphtheriae, UniProt Q6NFZ9); test: fluorescence titration of apoenzyme (emission at […] nm); type: binding
T1 construct: gene aecD; recombinant His-tagged apoenzyme

[1] = biological target: pyridoxal-5′-phosphate (PLP-) dependent C-S lyase from Corynebacterium diphtheriae (Corynebacterium diphtheriae); test: SEC; analytical Superdex 200 HR 10/30, 20 mM sodium phosphate pH 7.2, 150 mM NaCl, 0.1 mL/min; calibrated with mass standards 12.4-669 kDa; apparent mass 85 kDa against about 44 kDa for the subunit
[2] = system: N[C@@H](CCSC[C@H](N)C(=O)O)C(=O)O; test: steady-state kinetics, Km; type: biochemical, Corynebacterium diphtheriae; conditions: PLP; pH 9.0; 30.0 °C
[3] = system: N[C@@H](CCSC[C@H](N)C(=O)O)C(=O)O; test: purified protein; conditions: PLP; pH 9.0; 30.0 °C
N[C@@H](CS)C(=O)O = test: purified protein; conditions: PLP

`Cc1ncc(COP(=O)(O)O)c(C=O)c1O` [PLP, pyridoxal-5′-phosphate] gave a Kd (C-S lyase) of 90 ± 30 nM.

Molecule “pyridoxal-5′-phosphate (PLP-) dependent C-S lyase from Corynebacterium diphtheriae (enzyme)” has a stoichiometry N [1] of 2.

“C-S lyase (Corynebacterium diphtheriae NCTC 13129; Y114F)” showed a Km [2] of 200 ± 10 µM and a kcat [2] of 1.2 ± 0.02 s⁻¹.

Molecule “C-S lyase (Corynebacterium diphtheriae NCTC 13129)” has a Km [3] of 1070 ± 220 µM, a kcat [3] of 92.7 ± 4.44 s⁻¹ and a Km (N[C@@H](CS)C(=O)O) of 950 ± 180 µM.
